Assays:
[1] = Liposome permeabilization by WT and mutant BAK proteins (autoactivation, or direct activation by BID BH3); format: biochemical; settings: absence of BID BH3
Method: Human BAK-∆TM-His6 (BAK)[26] spontaneously permeabilizes liposomes above a certain dose (>100 nM, Fig. 1a). In these dye-release assays[43]–[46], BAK is recruited via His-tag to liposomes containing 2.5 µM of the lipid 1,2-dioleoyl-sn-glycero-3-[(N-(5-amino-1-carboxypentyl)iminodiacetic acid)succinyl] (nickel salt), DGS-NTA(Ni).
To probe autoactivation with full-length BAK, we mutated hydrophobic residues at positions (0)−(6) of the BH3 to alanine or arginine, and D83, which forms the conserved salt bridge (s) with R127, to alanine (Fig. 2a). The BH3 residues participate in autoactivation from the ligand side [hydrophobic positions (0)–(5) and D83(s)] and also from the receptor groove side [hydrophobic positions (3)–(5)] (Fig. 2a). Thus, substitutions at positions (3)–(5) should affect receptor and ligand activities and are predicted to impact BAK activation more severely than mutations of positions (0)–(2), which affect only ligand activity. […] In contrast, almost all (2)–(5) and (s) missense mutants were considerably impaired in autoactivation (Fig. 2b and Supplementary Fig. 3a). […] Despite impairment in autoactivation, all missense mutants were directly activated by BID BH3 peptide, although they induced lower level of permeabilization compared to WT BAK (Fig. 2b and Supplementary Fig. 3a).
We performed liposome permeabilization assays as previously described[43]–[46]. […] (nickel salt) [DGS NTA(Ni), 2.5 μM final concentration in each assay] (Avanti Polar Lipids). We prepared 12.5 mM fluorophore; 8-aminonaphthalene-1, 3, 6-trisulfonic acid, disodium salt (ANTS) and 45 mM quencher; p-xylene-bis-pyridiniumbromide (DPX) in LUV buffer (10 mM HEPES pH 6.8, 200 mM KCl and 5 mM MgCl2). We mixed the lipid film in ANTS/DPX solution by vortexing and sonication (~15 min) followed by extrusion through polycarbonate membrane of 2 μm pore size (Avanti Polar lipids) to generate homogenous large unilamellar vesicles (LUVs). We separated LUVs from free ANTS/DPX by S500 size exclusion chromatography and stored them at 4 °C in the dark. We prepared peptide and protein dilutions in 96-well black flat bottom plates (Costar) kept on ice. ANTS release from permeabilized liposomes causes an increase in fluorescence, which we monitored at 37 °C for 90 min using a CLARIOSTAR microplate reader (BMG Labtech) set at excitation and emission wavelengths of 360 and 530 nm, respectively. We normalized the data relative to maximum and minimum fluorescence induced by 3% CHAPS and buffer controls, respectively. We quantified liposome permabilization by integrating area under curve (AUC) of normalized traces based on the Simpson’s equation, and analyzed that data in Excel and GraphPad Prism. AUC measurements reflect the kinetic and extent of liposome permeabilization and provide quantitative means for comparison between different experimental conditions (e.g., BAK mutants with gross or partial variation in activity). Variability in permeabilization of different liposomes is common and our analyses compare among conditions investigated with the same liposomes. Although the absolute permeabilization values may differ, the trends for the same conditions are always very similar between different liposomes.

[2] = test system: bak−/− bax−/− HCT116 cells; assay: Apoptosis initiated by actinomycin D and TRAIL + CHX in cells constitutively expressing BAK; format: cell-based, human; settings: constitutive pMX-BAK-IRES-GFP
Description: We enriched for GFP positive cell populations by up to four rounds of sorting. Cells were used in apoptosis assays. […]
and doxycycline (Dox)-inducible mC-BAK. d, Representative i mmunoblot for BID and sypro red staining of BCL2allKO HCT116 cells expressing V74A and D83A mC-BAK and BID from n=2 independent experiments. e, Representative immunoblot of bak-/- bax- […]
from n=2 independent experiments . GFP positive cells were sorted three and four times to achieve similar expression levels. […]
human TRAIL and cycloheximide (CHX).
Data are presented as mean + SD for one representative of n=2 experiments each of n=3 technical replicates. g, Experimental […]
BAK (mC-BAK) monitored for 48 hr by IncuCyte imaging uptake of cell-impermeable dye SYTOX Green. AUC for kinetic traces is included. At 48 hr, we quantified percentage of SYTOX Green +ve cells (%) by fluorescence activated cell sorting (FACS). Data are presented as mean + SD from one of n=3 experiments each of n=3

B1: V74A (1): BAK missense mutant, WT-like; in cells as mCherry fusion (protein)
chain: MASGQGPGPPRQECGEPALPSASEEQVAQDTEEVFRSYVFYRHQQEQEAEGVAAPADPEMVTLPLQPSSTMGQAGRQLAIIGDDINRRYDSEFQTMLQHLQPTAENAYEYFTKIATSLFESGINWGRVVALLGFGYRLALHVYQHGLTGFLGQVTRFVVDFMLHHCIARWIAQRGGWVAALNLGNG
modifications: left off: His6, C-terminal, kept
notes: BAK missense mutant, WT-like; in cells as mCherry fusion
- autoactivation in liposome permeabilization assays [1]: behave similar to WT BAK
- response to apoptotic inducers actinomycin D and TRAIL + CHX [2]: respond similarly
